Bridges are numbered along the chain shown (N, C = ends). Where no end group is shown, it is not given here.
Target: T1, integrin α4 β1 binding to VCAM-1 (Homo sapiens, UniProt P05556+P13612)
T1 construct: endogenous in cells; host or cells: HL-60 cells (integrin α4β1); VCAM-IgG fusion made in house in transfected COS cells
Assay: VCAM-1/α4 β1 Binding Assay (binding of labeled HL-60 cells to VCAM-IgG fusion protein on magnetic beads)
Type: cell-based
Conditions: 10 min at room temperature
Procedure: Peptides were assayed for their ability to inhibit the binding of the integrin α4 β1 to VCAM. […] The assays are described below.
VCAM-1/α4 β1 Binding Assay
The assay involves determining the ability of cells that express α4 β1 to bind directly to purified VCAM. The integrin-expressing cell type used in this assay was HL-60, a human promyelocytic line.
An expression vector was designed such that a region of VCAM known to bind the integrin was expressed as a fusion protein with mouse IgG. A cDNA containing the two N-terminal domains of human VCAM was generated by the polymerase chain reaction (PCR) from a full length VCAM cDNA. Similarly, a cDNA containing the hinge, CH2 and CH3 regions of mouse IgG, was amplified by PCR from cDNA made from total RNA isolated from the hybridoma cell line 402C10. […]
HL-60 cells were fluorescently labeled with Calcein AM C-3099 (Molecular Probes) and resuspended in 1 ml of binding buffer (Hank's balanced salt solution, pH 7.4, 1.0 mM CaCl2, 1.0 mM MgCl2). […] The remaining bound cells were lysed in 50 mM Tris, pH 7.4, 5.0 mM EDTA, 1.0% NP-40 and quantitated by fluorimetry using a Millipore Cytofluor 2350 fluorimeter. Dose response curves were calculated and IC50 values determined. Alternatively, the percent adhesion was determined at a single peptide concentration for comparison among peptides.

T1 sequence (P13612 34-1032): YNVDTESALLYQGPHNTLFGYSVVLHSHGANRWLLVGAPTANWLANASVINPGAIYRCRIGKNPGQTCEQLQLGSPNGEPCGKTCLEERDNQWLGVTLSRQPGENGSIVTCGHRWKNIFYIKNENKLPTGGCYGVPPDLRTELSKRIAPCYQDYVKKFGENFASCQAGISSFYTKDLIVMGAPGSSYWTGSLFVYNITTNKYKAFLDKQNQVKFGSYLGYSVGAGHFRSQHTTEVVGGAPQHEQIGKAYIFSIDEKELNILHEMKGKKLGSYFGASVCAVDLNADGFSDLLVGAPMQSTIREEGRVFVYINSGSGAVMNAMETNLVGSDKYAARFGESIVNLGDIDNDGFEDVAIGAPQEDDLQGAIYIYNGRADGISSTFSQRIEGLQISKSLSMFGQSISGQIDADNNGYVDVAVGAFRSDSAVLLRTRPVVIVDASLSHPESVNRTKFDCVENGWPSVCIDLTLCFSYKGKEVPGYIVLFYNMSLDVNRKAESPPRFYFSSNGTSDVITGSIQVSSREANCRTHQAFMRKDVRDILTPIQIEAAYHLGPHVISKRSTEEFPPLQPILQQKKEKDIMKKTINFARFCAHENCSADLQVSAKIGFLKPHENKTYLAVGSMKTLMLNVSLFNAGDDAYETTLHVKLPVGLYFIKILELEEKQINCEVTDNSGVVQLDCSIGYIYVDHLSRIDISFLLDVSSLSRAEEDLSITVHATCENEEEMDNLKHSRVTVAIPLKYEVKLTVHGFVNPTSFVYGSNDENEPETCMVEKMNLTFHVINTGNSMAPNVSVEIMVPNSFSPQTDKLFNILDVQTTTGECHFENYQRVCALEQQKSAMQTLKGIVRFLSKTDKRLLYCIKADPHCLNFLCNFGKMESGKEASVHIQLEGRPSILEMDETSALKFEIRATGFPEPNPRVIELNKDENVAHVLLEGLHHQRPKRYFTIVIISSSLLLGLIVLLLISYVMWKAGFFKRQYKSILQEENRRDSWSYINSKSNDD
T1 sequence (P05556 21-798): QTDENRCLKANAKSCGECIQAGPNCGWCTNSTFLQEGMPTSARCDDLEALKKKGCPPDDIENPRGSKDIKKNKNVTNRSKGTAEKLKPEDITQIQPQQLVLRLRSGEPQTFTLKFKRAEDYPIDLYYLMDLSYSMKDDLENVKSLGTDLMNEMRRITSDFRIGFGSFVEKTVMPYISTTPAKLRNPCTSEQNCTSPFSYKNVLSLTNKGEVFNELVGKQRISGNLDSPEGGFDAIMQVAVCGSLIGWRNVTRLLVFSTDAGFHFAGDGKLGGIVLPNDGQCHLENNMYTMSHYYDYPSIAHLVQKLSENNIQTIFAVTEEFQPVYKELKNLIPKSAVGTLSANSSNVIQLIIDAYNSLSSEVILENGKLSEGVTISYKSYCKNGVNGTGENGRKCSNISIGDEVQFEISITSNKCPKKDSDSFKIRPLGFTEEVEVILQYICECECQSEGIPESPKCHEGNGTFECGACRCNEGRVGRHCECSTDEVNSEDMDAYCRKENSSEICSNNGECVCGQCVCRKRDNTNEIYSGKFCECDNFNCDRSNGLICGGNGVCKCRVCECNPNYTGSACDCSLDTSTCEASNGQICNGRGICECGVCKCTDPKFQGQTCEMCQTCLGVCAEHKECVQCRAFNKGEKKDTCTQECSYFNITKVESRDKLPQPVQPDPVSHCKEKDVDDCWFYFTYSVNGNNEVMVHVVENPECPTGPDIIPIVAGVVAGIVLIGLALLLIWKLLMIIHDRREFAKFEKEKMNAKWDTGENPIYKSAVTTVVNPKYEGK

Row | Substance | concentration of peptide found to significantly inhibit the binding of α4 β1 integrin to VCAM-1
1 | Cys-Trp-Leu-Asp-Leu-Cys-acid (CWLDLC-OH; disulfide 1-6; not fully specified (N-terminus, bridges); printed as Cys-Trp-Leu-Asp-Leu-Cys-acid) [SEQ ID NO:28] | less than 10 μM
2 | Cys-Trp-Leu-Asp-Tyr-Cys-acid (CWLDYC-OH; disulfide 1-6; not fully specified (N-terminus, bridges); printed as Cys-Trp-Leu-Asp-Tyr-Cys-acid) [SEQ ID NO:29] | less than 10 μM

Reference: patent US6087330A, “Process to inhibit binding of the integrin α4 β1 to VCAM-1 or fibronectin and cyclic peptides therefor” (Texas Biotechnology Corporation, priority 1998, dated 2000)
